Laboratory results from publication PMC11367332, “Neutralizing IL-38 activates γδ T cell-dependent antitumor immunity and sensitizes for chemotherapy” (Journal for Immunotherapy of Cancer, 2024).

How the values were obtained:
CD8+ T cells = test: CD8+ T-cell proliferation assay (co-culture with cDC1); assay type: cell-based, mouse; conditions: 5 µM added daily
Method: CD8+ T cells from murine spleen and cDC1 from PyMT tumors treated in vivo with anti-IL-38 antibodies were isolated by FACS-sorting. CD8+ T cells and cDC1 were co-cultured at a ratio of 1:40 in the T-cell medium. Cells were pre-incubated with either 100 nM anti-IL-38 or 100 nM IgG isotype control, activated with mouse T-cell activator CD3/CD28 Dynabeads (Thermo Fisher Scientific) and supplemented with 10 ng/mL rm IL-2 (PrepoTech) at days 0, 2 and 5 and 50 μM β-mercaptoethanol daily. For the Notch signaling blockade, 5 µM γ-secretase inhibitor DAPT (Abcam) was added daily. For CD8+ T cell culture, 100 ng/mL rm IL-38 (AdipoGen) was added daily. Supernatants were collected for cytokine determination at days 3, 5 and 7 and cell proliferation was analyzed by flow cytometry.
To measure the cytokines in PyMT tumors and cell culture supernatants, Cytometric Bead Array Flex Sets (BD Biosciences) were used for murine IL-17A and IFN-γ. The samples were acquired via FACS and analyzed with FlowJo Software V.10 (Tree Star).

PyMT tumors [1] = test: Therapeutic model of chemoresistance in PyMT mice (doxorubicin with or without anti-IL-38); assay type: in vivo, mouse
Excerpt: The C57BL/6N IL-38 knockout (KO) strain was previously described.[10] For the polyoma virus middle T oncoprotein (PyMT) model, IL-38 KO mice were crossed with the PyMT mammary carcinoma strain, previously bred into a C57BL/6 background.[19] Only female PyMT mice were used. Tumor development in PyMT wildtype (WT) versus IL-38 KO mice was monitored once a week for up to 8 weeks, starting at 12 weeks using electronic calipers. For IL-38 neutralization, PyMT WT mice were intraperitoneally (i.p.) injected with 100 µg of either anti-IL-38 antibody (e04, in-house generated) or IgG1 (Human IgG1, Bio X Cell) isotype control. […] The treatment started at week 13 and tumor growth was monitored once a week. Group sizes were determined based on prior experience with the model. […]
(§1) For preparing single-cell suspensions, PyMT tumors were processed with the Tumor Dissociation Kit (Miltenyi Biotec) and gentleMACS Dissociator (Miltenyi Biotec) according to standard protocols. […] Samples were acquired with an FACSymphony A5 or FACSymphony S6 flow cytometer (BD Bioscience) and the data was analyzed in FlowJo software V.10 (Tree Star). […] For the gating strategy, fluorescence minus one controls were applied. […]

[2] = molecular target: T1, mIL-38-Avi (murine IL-38 with Avi tag) (Mus musculus, UniProt Q8R459); test: BLI; Octet RED96; mIL-38-Avi immobilised on streptavidin biosensors at 2 µg/mL; Fab from 250 to 7.8 nM in 1:1 dilution steps; 150 mM NaCl, 50 mM Tris-HCl pH 7.5, 0.1% BSA, 0.02% Tween 20; 1:1 analyte model with global fit; conditions: both partners purified
T1 construct: interleukin-38 (IL-38, IL-1 family member 10), mouse; PDB 8Q3J holds mIL-38 and may show the limits of the construct; also called mouse IL-38

[3] = molecular target: T1, mIL-38-Avi (murine IL-38 with Avi tag); test: BLI; Octet RED96; mIL-38-Avi immobilised on streptavidin biosensors at 2 µg/mL; IgG from 250 to 7.8 nM in 1:1 dilution steps; 150 mM NaCl, 50 mM Tris-HCl pH 7.5, 0.1% BSA, 0.02% Tween 20; 1:2 bivalent model; conditions: both partners purified
murine IL-38 = molecular target: T2, murine IL-38 (Mus musculus, UniProt Q8R459); test: Neutralization of IL-38 effect on IL-17 production by splenic γδ T cells; assay type: cell-based; conditions: γδ T cells on anti-CD3 plates, IL-1 and IL-23 + IL-38 and Fab, supernatants after 5 days
T2 construct: purchased AdipoGen AG-40B-0101-C010
T2 sequence (Q8R459 1-152): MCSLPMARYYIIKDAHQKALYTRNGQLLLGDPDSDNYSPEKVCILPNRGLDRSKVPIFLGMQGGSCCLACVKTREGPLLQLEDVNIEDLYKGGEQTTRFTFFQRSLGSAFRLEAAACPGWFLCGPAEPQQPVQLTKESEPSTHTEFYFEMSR
Method: Figure 2 IL-38 neutralization slows down tumor development and increases T-cell infiltrates into tumors. (A) Kinetic analysis and dissociation constants (Kd) of Fabs e04 and h06 selected by phage display binding to mouse IL-38 determined by biolayer interferometry. (B) Mouse splenic γδ T cells were seeded on anti-CD3 coated plates and treated with IL-1 and IL-23 + IL-38 and Fab fragments putatively recognizing […] murine IL-38. IL-17 levels in supernatants were analyzed after 5 days. Unrelated Fab fragments c05 and d09 were used as negative controls. Data are from four independent experiments. (C) SDS-PAGE analysis of purified e04 IgG. (D) Binding profile of e04 IgG and mouse IL-38 determined by biolayer interferometry. (E) Crystal structure of Fab E04 binding to recombinant IL-38. […] (F) Tumor growth was monitored when the first tumor reached 0.6 cm in diameter. […] (I) The overall immune cell profile (n=6), (J) γδ T-cell subsets (n=5–6) and (K) intracellularly produced cytokines (n=10–11) were determined by flow cytometry after 5 weeks of treatment. (L) Representative images of PyMT tumors stained for CD8, CD4 and CD3 and (M) quantification of indicated cells is shown. […] Data are shown as means±SEM. *p<0.05, **p<0.01, ***p<0.001; p values were calculated using unpaired multiple t-tests with FDR correction. […]

PyMT tumors [4] = test: IL-38 neutralization in PyMT mammary carcinoma model; assay type: in vivo, mouse
Excerpt: The C57BL/6N IL-38 knockout (KO) strain was previously described.[10] For the polyoma virus middle T oncoprotein (PyMT) model, IL-38 KO mice were crossed with the PyMT mammary carcinoma strain, previously bred into a C57BL/6 background.[19] Only female PyMT mice were used. Tumor development in PyMT wildtype (WT) versus IL-38 KO mice was monitored once a week for up to 8 weeks, starting at 12 weeks using electronic calipers. For IL-38 neutralization, PyMT WT mice were intraperitoneally (i.p.) injected with 100 µg of either anti-IL-38 antibody (e04, in-house generated) or IgG1 (Human IgG1, Bio X Cell) isotype control. For CD8+ T cell depletion, PyMT WT mice were injected with 100 µg of anti-IL-38 antibody (e04) in combination with either 250 µg of anti-CD8 antibody (anti-mouse CD8α, Bio X Cell) or IgG2b (rat IgG2b, Bio X Cell) isotype control. In both experiments, the treatment started once the first tumor reached a size of 0.6 cm in diameter. The antibodies were injected once a week for 5 weeks. In the therapeutic model of chemoresistance, PyMT WT mice were i.p. injected with 5 mg/kg of doxorubicin (Teva Pharma) in combination with either IgG1 isotype control or anti-IL-38 antibody. The mice were treated with five once-weekly cycles of chemotherapy once the first tumor reached a size of 1.0 cm in diameter. For γδ T-cell receptor (TCR) neutralization, mice were separated into four groups, in which PyMT WT and IL-38 KO mice were treated with either anti-γδ TCR antibody (UC7-13D5, Bio X Cell) or IgG (polyclonal Armenian hamster, Bio X Cell) isotype control once a week for 5 weeks. Mice were i.p. injected once with 500 µg of antibodies, followed by 4 weekly injections of 200 µg.[20] The treatment started at week 13 and tumor growth was monitored once a week. Group sizes were determined based on prior experience with the model. No exclusion criteria were defined and no animals were excluded. Due to the nature of the model (treatment start for every single animal depends on individual parameters), simple randomization (no confounder minimization) was done and the experimenters were not blinded. Data analysis was done in a blinded manner. Animals were housed in groups at the Zentrale Forschungseinrichtung (animal testing facility), Faculty of Medicine, Goethe University Frankfurt. […]
as §1

## C[C@H](NC(=O)Cc1cc(F)cc(F)c1)C(=O)N[C@H](C(=O)OC(C)(C)C)c1ccccc1 [DAPT]
CD8+ T cells; cytometric bead array days 3, 5 and 7
  cDC1-induced IFN-γ production by CD8+ T cells: strongly inhibited
CD8+ T cells; flow cytometry at day 7
  cDC1-induced proliferation of CD8+ T cells: strongly inhibited

## COc1cccc2c1C(=O)c1c(O)c3c(c(O)c1C2=O)C[C@@](O)(C(=O)CO)C[C@@H]3O[C@H]1C[C@H](N)[C@H](O)[C@H](C)O1 [doxorubicin]
PyMT tumors [1]; Il1f10 mRNA by quantitative PCR, PyMT WT mice
  IL-38 expression in the tumor: increased IL-38 expression in the tumor
PyMT tumors [1]; late-stage setting, start at tumor size 1 cm, doxorubicin 5 mg/kg i.p., five once-weekly cycles, antibody 100 µg/mouse
  Tumor progression: did not

B1: Fab e04 (Fab, V domains shown)
VH: EVQLVESGGGLVQPGGSLRLSCAASGFSFSSSSIHWVRQAPGKGLEWVASISPYYSYTSYADSVKGRFTISADTSKNTAYLQMNSLRAEDTAVYYCARTVRGSKKPYFSGWAMDYWGQGTLVTVSS
VL: DIQMTQSPSSLSASVGDRVTITCRASQSYYSYVAWYQQKPGKAPKLLIYSASSLYSGVPSRFSGSRSGTDFTLTISSLQPEDFATYYCQQVFAPITFGQGTKVEIK
notes: heavy chain (Fd) of Fab e04 from a synthetic Fab-phage library; light chain of Fab e04 from a synthetic Fab-phage library; Selected by phage display against murine IL-38; the library is described in the online supplemental methods; also called anti-IL-38 Fab fragment; source: E. coli BL21, purified (HiTrap Protein G)
[2]
  Kd: 6.7 nM

B2: e04 IgG (Fab e04 converted into full-length IgG1) (antibody, V domains shown)
VH: EVQLVESGGGLVQPGGSLRLSCAASGFSFSSSSIHWVRQAPGKGLEWVASISPYYSYTSYADSVKGRFTISADTSKNTAYLQMNSLRAEDTAVYYCARTVRGSKKPYFSGWAMDYWGQGTLVTVSS
VL: DIQMTQSPSSLSASVGDRVTITCRASQSYYSYVAWYQQKPGKAPKLLIYSASSLYSGVPSRFSGSRSGTDFTLTISSLQPEDFATYYCQQVFAPITFGQGTKVEIK
notes: variable part as the heavy chain of m2 (PDB 8Q3J), converted into full-length IgG1 format; as the light chain of m2 (PDB 8Q3J); IgG1; also called IgG e04; anti-IL-38 antibody (e04); source: Expi293F, transfected, purified from supernatant (HiTrap Protein G)
[3]
  Kd: 0.68 nM

B3: Fab e04: Fab fragment selected by phage display from a synthetic Fab-phage library, binds murine IL-38 (antibody, V domains shown)
VH: EVQLVESGGGLVQPGGSLRLSCAASGFSFSSSSIHWVRQAPGKGLEWVASISPYYSYTSYADSVKGRFTISADTSKNTAYLQMNSLRAEDTAVYYCARTVRGSKKPYFSGWAMDYWGQGTLVTVSS
VL: DIQMTQSPSSLSASVGDRVTITCRASQSYYSYVAWYQQKPGKAPKLLIYSASSLYSGVPSRFSGSRSGTDFTLTISSLQPEDFATYYCQQVFAPITFGQGTKVEIK
Murine IL-38
  Effect on IL-38 inhibition of IL-17 production by γδ T cells: neutralized the inhibitory effect of IL-38 on IL-17 production by γδ T cells

B4: IgG e04: Fab e04 converted into full-length IgG1 format; in-house generated IL-38 neutralizing antibody (antibody, V domains shown)
VH: EVQLVESGGGLVQPGGSLRLSCAASGFSFSSSSIHWVRQAPGKGLEWVASISPYYSYTSYADSVKGRFTISADTSKNTAYLQMNSLRAEDTAVYYCARTVRGSKKPYFSGWAMDYWGQGTLVTVSS
VL: DIQMTQSPSSLSASVGDRVTITCRASQSYYSYVAWYQQKPGKAPKLLIYSASSLYSGVPSRFSGSRSGTDFTLTISSLQPEDFATYYCQQVFAPITFGQGTKVEIK
PyMT tumors [4]; CD8+ T cells, macrophages, tumor cells, flow cytometry
  Expression of the PD-1/PD-L1 immune checkpoint in tumors: did not observe an impact
PyMT tumors [4]; PyMT WT mice, 100 µg i.p. once a week for 5 weeks, start at first tumor 0.6 cm, vs IgG1 isotype
  Tumor development: marked delay in tumor development
PyMT tumors [4]; flow cytometry after 5 weeks of treatment, vs IgG1 isotype
  Abundance of CD8+ T cells and γδ T cells in tumors: increased abundance of CD8+ T cells and γδ T cells in the tumors
PyMT tumors [4]; intracellular cytokine staining, flow cytometry, after 5 weeks of treatment
  Cytokine-producing γδ T cells in tumors: IFN-γ rather than IL-17-producing γδ T cells were increased
